Patent US20240026407A1, “MODIFICATION OF SAPONINS” (GLAXOSMITHKLINE BIOLOGICALS SA, priority 2020, published 2024)

B1: 829 (protein, listed as Pseudonocardia sp.)
chain: MATVDEDLLTTLIARLDLDAKVRLLTGADFWSTPAEPAIGLRRMVLSDGPSGVRGESFDERSPSLSLPSSTALGATWDPELARRYGSTLGAEARRQHADVVLGPTINLHRTPFGGRHFEALSEDPLLTGELAAAYVEGLQAHGVAATPKHYVANDAESERFTVDNVVGERALHELYLAAFEPAVTRGGAWAVMSAYNAVNGATMSENPLLTEPLTGEWGFDGLVMSDWGAVRTTVASARAEQHLVMPGPVSTWGERLVAAVRGGEVDESVVDGKLRRLLRLAARVGALDGGPTPPPAPAPGDGATVARELAAAGSVLVRNTGELPWDASALGTVAVLGHNAALARTQGGGSATVRPAAVVAPLDGLRTALGGDRVRYRLGAQVAEGVQPFDPETVTDPVTGEPGLRAVFRAADGTALRSEHRLGASLIWMSGEIPGGAETVEVSTRWSPEPGAHRIGAAAVGHVTVSADGATVLDTEAVLTGDEGPGAAIFEAPSATAEITTDAPVDLVFRFRPSGGEAGMALFALTVGTETVVADPRAEVAAAASLAADCDVAVVVVGTNDRIESEGFDRTSLALPGHQDDLVRAVAAANPRTVVVVNSGAPVLLPWRDEVAAVLLGWFGGERFGDAVADVLLGHAEPGGRLPTTWPATGEERSVLSGRPTDGVLRYDEGVHLGHRNWLRHGETPAYPFGHGLGYTTWTLDDAVAGPWSADGVAVTVTLTNTGDRAGRQVVQAYLSRTGSDVERPARWLAGWAVVDAAPGTTTATVTVSRRAFRHRAGGVWATEPGTYELHLGFSVADTPLHATVEVVGEG
B2: 870 (protein)
chain: MTEQTHTKAKDLDLQEEASLTSGSDSWHLQGLPDKGYEGYMITDGPYGLRKATGSDVYGSVPATCFPPTAGLASSWNPDLTYQVGQAMGEECIQEKVAVILGPGINIKRSPLGGRNFEFYSEDPVLAGHEAAGLVEGVQSKGVGTSLKHFAANNQETDRLRVSSDVDVRTLREIYLPAFEYVVKNAKPWTIMCAYNKVNGVFSSENRWLLTDVLRGEWGYQGMVMSDWGAVHNRVDALQAGLNLEMPPSRTDDQVVQAVQAGKLDKEQLDRMAQGILDLIDKARPAMSQQGYRYDVQEHNDMARRAAQESIVLLRNEDRILPLDPQKKVAVIGEFARTPRYQGGGSSHITPTEVSSALDGFKEAGMNVDFAPGFTLDEKEQDPALTRQALEVARGADTVVLFLGLPEYAESEGFDRTSMDLPEKQVALLKAVSEVNDRVVAVLSNGAVVTVADWMDKTKGLLETWLLGQEGGRAVVDVLTGAATPSGHLPETIPVRLEDNPTITSFPGEEGHSRYGEGVYVGYRYYDTFQRPVAFPFGFGLSYADFALDQVAVTKTGASSARVEVTVTNTSQVDGAQTVQVYVAPCASRVNRPSHELKAFTKVFLKAGQSSRVSMDLTERDFAYWSTAMDAWHVEAGTYRIQVGTSSRDLVAEEDLQVDGDGRFIPLNAESTMAEWRENSIGGPIMRDRIDQDGIPLPDDPNTAQLFDTMPLASVITLSGGDGNGIVADMVDRYHQALKQQGRDS
modifications: Bifidobacterium asteroides
B3: 808 (protein, listed as Microbacterium lemovicicum)
chain: MTTESTVATSDATSHLLPLLAQLTLAQKAAFVQGADFWATVPLPEIGVRSMTLSDGPAGVRGPRWDEREPSLNLPSGSALAASWDIDLAYRYGAAAASEARRKGVDVVLGPTINLHRSPLGGRHFECFSEDPELTAELGAAYVRGLQDNGVAATPKHYVANDSETDRFTVDVRVDERALRELYLAPFERAVEAGTWSVMSAYNSVDGVTMTENDLLETPLNSEWGFDGVVVSDWTAVRSLDAVAASQDLAMPGPAPAWADLVAAVEDGRVSEADLDRKVLRMLLLAERVGALEGAPGIEPAPVDGVAFTREAAVEGTVLLTNDGTLPLDAAALRSVAVIGHNALEARTQGGGSATVLPEHVVSPLEGLRTALPDAAVSYEIGAVVQEGVAELPLEQLQNTVTGEPGLRVSFFDADGLELFTEDRRSTALVWFGGDAPIAASSSVVLETVYTPAETGEIQLGFAGANPGRVSIDGVEVLAETPLIEGTDLGAAFLNPPSSTAAVRAEAGRPLRLRAEFALSSGGPLAGALSVTLGIAPETTDPDELIARAAAAAASADVAVVVVGTNSKVESEGYDRVDLDLPGRQDDLVRAVAATGTPTIVVVNAGSPVVLPWAGEVAAVVQGYFGGQEFGSAVAAVLTGAAEPGGRLPTTWPAALADVPVTDVAPQDGVLAYTEGIHIGYRAWLRADAAPAFPFGHGLGYTTWSWGAVQRDGDALDVTLANTGARAGKQVVQVYAERADSTVERPVRWLVGFATVRAEAGQTVTATIPLPARRFAHWSDGWQVEGGAFTLRAGASVADLPLTMEWSIGD
B4: 828 (protein, listed as Bifidobacterium pseudocatenulatum)
chain: MSEKTYPSINDLTLEEKASLTSGGDAWHLQGVEAKGIPGYMITDGPHGLRKSNSATTGEVDLNNCVPATCFPPAAGLSSSWNPELIHQVGEAMAEECIQEKVAVILGPGVNIKRNPLGGRCFEYWSEDPYLAGHEAIGIVAGVQSKGVGTSLKHFAANNQETDRLRISANISQRALREIYFPAFEHIVKEAQPWTIMCAYNCINGVHAAQDHWLLTDVLRDEWGFQGIVMSDWGADHDRVASLNAGLNLEMPPSYTDDQIVYAARDGRIQPAQLDHMAQGMIDLVNKTRAAMSIENYRFDIEAHDEVAHQAAIESMVLLKNDDAILPIAGDAKVTVIGEFARTPRYQGGGSSHITPTKMTSFLDTLTERGVDAKFAPGFTLDLEPADPALEAEAVDAAKGADVVLMFLGLPEAAESEGFDRETLDMPAKQIALLEAVAAENKNVVVVLSNGSVVTVAPWAKNAKGILESWLLGQSGGPALADVLFGKVSPSGKLAQTIPFDINDDPSTINWPGEEGHVDYGEGVFVGYRYYDTYNKAVDYPFGFGLSYATFEVSDVKAVKTGACTASVSAVVKNTSNVDAAETVQVYVAPGKADVVRPKHELKGFKKVFLKAGESAEVSFELDDRAFAYWSERFNDWHVESGEYTIEVGTSSRDIAGSAVVELDGDGKAQPLTEWSNFMEWRKDPLGSKVLEILRAEGEAGRMPVVPDNDMTRLFLDSMPINSMSVLMGADGKQIFEYMLEKYAELTK
B5: 844 (protein, listed as Paenarthrobacter aurescens)
chain: MNPTLSAAVTAPSAGTQDAEAEIRDLAQSLTLEQQVQLLTGADVWSTHAIPEIGLSRVVMSDGPAGVRGEDFDERHDSVSLPSSSALSATWSVETARNYGQVLGQEARRKGVHAVLGPTINLHRSPLGGRHFECMSEDPRLTATMAAGYVAGVQSMGVGATPKHYLANEAETERFTADSVVDERPLRELYLAAFEDAITEARAWLVMSSYNSINGTTASENKLLETPLSTEWGFDGVVVSDWTGVRSIDAANAHQDLEMPGPVGHWGPKLLAAVNEGRVSREAILEKVTRILRLAARVGSLEGFEPAVTHLPTELNGAAVAREVAVRGAVLVRNKGLLPLDAKALGSVAVIGHNADEARTQGGGSATVMPKYTVSPLEGLRKALPEGVKVTYARGAKVAEGIQAFPRTSLHNPVSNVPGIRVTFLAEDGTEISGEDRLASHLIWFGIGIPDGAASIRMEADWTAETAGVHHLGVGTVGRIRFVLDGTEVFNSELEDDTEVLGAALFDPPKTVHAIDTTAGQSIRIEAEYQLPKEQVIPFTAILLGEETVVAEPQAEIDAAVEAARASDVAVVVVGTNAAIESEGFDRKDLDLPGYQNQLVKAVAAANPRTVVVVNSGSPVLMPWLDTVDAVLLGWFGGQEFGSAVADILLGVEEPGGRLPTTWPSALDDVPVLNTTPTDGKVVYSEGIHIGYRAWLKQQAEGGAAPALPFGFGLGYTTFEFGKAHAPQAVTAGKDLVVHVPVKNTGTRTGREVVQVYVERTESAVERPVRWLAGYAGAHLAPAGTESVEIRIPAKAFAHYDGGWQFEQGTFRLLVGRHAADDFQSLDIELR
B6: 873 (protein, listed as Bifidobacterium longum)
chain: MSESTYPSVKDLTLEEKASLTSGGDAWHLQGVEAKGIPGYMITDGPHGLRKSLTSSTGETDLDNSVPATCFPPAAGLSSSWNPELIHKVGEAMAEECIQEKVAVILGPGVNIKRNPLGGRCFEYWSEDPYLAGHEAIGIVAGVQSKGVGTSLKHFAANNQETDRLRVDARISQRALREIYLPAFEHIVKTAQPWTIMCSYNRINGVHSAQNHWLLTDVLRDEWGFEGIVMSDWGADHDRVASLNAGLNLEMPPSYTDDQIVYAARDGRIAPAQLDRMAQGMIDLINKARAAMSIDGYRFDVDAHDEVAHQAAIESIVLLKNDDAILPLNADPAAARKIAVIGEFARTPRYQGGGSSHITPTKMTSFLDTLAERGIKADFAPGFTLDMESADPALESEAVETAKNADVVLMFLGLPEAAESEGFDRDTLDMPAKQIALLEQVAAANKNVVVVLSNGSVITVAPWAKNAKGILESWLLGQSGGPALADVIFGQVSPSGKLAQSIPLDINDDPSMLNWPGEEGHVDYGEGVFVGYRYYDTYGKVVDYPFGYGLSYATFEIADVAAAKTGANTATVTATVTNTSDVDASETVQVYVAPGKADVARPKHELKGFTKVFLKAGESKTVTIDLDERAFAYWSEKYNDWHVESGEYAIEVGTSSRDIAETVTVALDGDGKTQPLTEWSTYGEWEADPFGAKIVAAVAAAGEAGELLKLPDNAMMRMFLNSMPINSLPTLLGEGGKKIAQFMLDEYAKLSK

Experiments:
Format in all cases: biochemical, Quillaja saponaria
[1] = Experiment 5-1: screening of additional glucosidases for deglycosylation with purified QS-18 (0.04 mg/ml) at pH 7.5 and 30 deg C; details: pH 7.5, 30 degrees C, 18 hours, LCMS/MS
Procedure: The 94 additional genes, together with positive control (DNA encoding SEQ ID No. 262) and negative control, were transformed, expressed, lysed and reacted in the same manner as described above for Experiment 4-1, except the reaction was incubated at 30 degrees C. for 18 hours.
Samples were analysed by LCMS/MS according to the procedure in Experiment 4-1.

[2] = Experiment 5-2: screening of additional glucosidases for deglycosylation with QS-18 in crude bark extract (80%) at pH 6 and 35 deg C; details: CBE 80%, pH 6, 35 deg C, 18 hours; UV HPLC
Procedure, shortened: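 Deglycosylation of QS-18 was monitored by UV HPLC after MeCN/AcOH quench with hexanophenone. The reaction ran 18 hours at 35 deg C, shaking, combining clarified pH 6 lysate with crude bark extract neutralised to pH 6 by NaOH.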

[3] = Experiment 5-3: screening of additional glucosidases for deglycosylation with QS-18 in treated bark extract (80%) at pH 6 and 35 deg C; details: TBE 80% (QS-21 approx. 4 g/L), pH 6, 35 deg C; UV HPLC
Procedure: Experiment 5-1 was repeated, replacing CBE with Treated Bark Extract (TBE) at pH 6. TBE was prepared from CBE by PVPP treatment and concentration, to provide TBE with a QS-21 concentration of approximately 4 g/L. TBE was adjusted to pH 6 by dropwise addition of 2M NaOH with stirring.

Row | Molecule | Experiment 5-1 % conv [1] [%] | Experiment 5-2 % conv [2] [%] | Experiment 5-3 % conv [3] [%]
1 | B1 | 52.3 | <0.5 | <0.5
2 | B2 | 49.7 | <0.5 | <0.5
3 | B3 | 52.0 | <0.5 | <0.5
4 | B4 | 50.7 | <0.5 | <0.5
5 | B5 | 43.6 | <0.5 | <0.5
6 | B6 | 43.9 | <0.5 | <0.5
